The target in data set [1] is blood clotting factor VII (UniProt P08709).
The next data set concerns the target prourokinase (UniProt P00749).

Chain of proenzyme form of the factor VII-activating protease (chain, as listed by the source): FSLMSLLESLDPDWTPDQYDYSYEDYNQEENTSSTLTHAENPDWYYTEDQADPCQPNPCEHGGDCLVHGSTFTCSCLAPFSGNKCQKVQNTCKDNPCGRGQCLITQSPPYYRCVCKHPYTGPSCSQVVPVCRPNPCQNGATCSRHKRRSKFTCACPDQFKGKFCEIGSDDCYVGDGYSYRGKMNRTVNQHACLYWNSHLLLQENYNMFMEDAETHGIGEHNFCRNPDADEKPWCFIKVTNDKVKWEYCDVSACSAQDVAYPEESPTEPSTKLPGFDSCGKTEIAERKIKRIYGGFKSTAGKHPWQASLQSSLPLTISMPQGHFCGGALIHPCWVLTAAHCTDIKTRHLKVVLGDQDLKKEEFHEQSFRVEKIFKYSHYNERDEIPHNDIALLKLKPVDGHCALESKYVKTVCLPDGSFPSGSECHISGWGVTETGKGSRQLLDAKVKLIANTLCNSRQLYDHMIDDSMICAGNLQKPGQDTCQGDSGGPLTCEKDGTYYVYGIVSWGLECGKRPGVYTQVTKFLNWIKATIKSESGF
Chain of blood clotting factor VII (P08709 61-466): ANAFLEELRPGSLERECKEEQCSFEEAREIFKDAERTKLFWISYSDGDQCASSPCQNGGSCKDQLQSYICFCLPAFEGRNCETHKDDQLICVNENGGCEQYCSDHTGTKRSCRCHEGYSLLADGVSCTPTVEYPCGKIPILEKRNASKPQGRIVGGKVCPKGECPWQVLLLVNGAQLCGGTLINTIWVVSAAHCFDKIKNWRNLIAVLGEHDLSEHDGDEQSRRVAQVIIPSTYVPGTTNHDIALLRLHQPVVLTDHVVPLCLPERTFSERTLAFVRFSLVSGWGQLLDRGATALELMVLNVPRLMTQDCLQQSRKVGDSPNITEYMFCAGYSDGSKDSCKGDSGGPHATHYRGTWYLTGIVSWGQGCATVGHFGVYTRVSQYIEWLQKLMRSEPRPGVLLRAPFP

As to “proenzyme form of the factor VII-activating protease”, the “activation of factor VII, with subsequent detection of activated factor VII (activity tests of Example 1)” value in data set [1] is reported as “The activity tests (see Example 1) confirmed the nativity of the protein in the sense of the retainment of the biological activities”. In addition, the “activation of prourokinase, with subsequent detection of urokinase (activity tests of Example 1)” value with prourokinase was “The activity tests (see Example 1) confirmed the nativity of the protein in the sense of the retainment of the biological activities”.

The values above are taken from patent US6677440.
